# ± gives the uncertainty stated by the source.
# B1: library; numbered along this chain (parent)
# chain: MEVVDPQQLGMFTEGELMSVGMDTFIHRIDSTEVIYQPRRKRAKLIGKYLMGDLLGEGSYGKVKEVLDSETLCRRAVKILKKKKLRRIPNGEANVKKEIQLLRRLRHKNVIQLVDVLYNEEKQKMYMVMEYCVCGMQEMLDSVPEKRFPVCQAHGYFCQLIDGLEYLHSQGIVHKDIKPGNLLLTTGGTLKISDLGVAEALHPFAADDTCRTSQGSPAFQPPEIANGLDTFSGFKVDIWSAGVTLYNITTGLYPFEGDNIYKLFENIGKGSYAIPGDCGPPLSDLLKGMLEYEPAKRFSIRQIRQHSWFRKKHPPAEAPVPIPPSPDTKDRWRSMTVVPYLEDLHGADEDEDLFDIEDDIIYTQDFTVPGQVPEEEASHNGQRRGLPKAVCMNGTEAAQLSTKSRAEGRAPNPARKACSASSKIRRLSACKQQ
# Variants of: B1
# Assay: STK11 functional score (HeLa growth suppression), rescaled enrichment; synonymous median = 1, nonsense median = 0 (normalised score)
# Conditions: with HeLa; variant type: missense
# How it was run: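 HeLa cells carrying an AAVS1 landing pad received codon-optimised STK11 libraries made by codon randomisation (POPCode), integrated by Bxb1, with three regions each transfected three times. Integrants that were BFP-negative and mCherry-positive were sorted by FACS 4–5 days after electroporation and then grown for about two weeks. Tiled amplicons from gDNA were sequenced on NextSeq at ~2 million reads per tile. The functional score is a wild-type-corrected log ratio of post- to pre-selection counts, rescaled to the synonymous and nonsense medians, merged across codons and replicate transfections, and given a bootstrapped error.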
row,Variant,STK11 functional score
1,N412Q,1.37 ± 0.27
2,N412C,1.11 ± 0.1
3,N412V,1.33 ± 0.2
4,E317C,1.49 ± 0.17
5,F12L,1.23 ± 0.68
6,P326R,1.53 ± 0.18
7,Y253D,0.768 ± 0.37
8,Y253F,0.587 ± 0.17
9,F234S,1.1 ± 0.2
10,G15F,1.05 ± 0.1
11,F231D,1.56 ± 0.39
12,F231Y,0.865 ± 0.35
13,M289S,-0.188 ± 0.1
14,M289R,-0.101 ± 0.11
15,G135L,1.52 ± 0.15
16,G135S,1.65 ± 0.17
17,V338S,1.59 ± 0.26
18,V338Q,1.54 ± 0.14
19,Q152V,1.19 ± 0.27
20,E165G,0.569 ± 0.084
21,V66K,1.4 ± 0.37

row,Variant,STK11 functional score
1,V66N,0.393 ± 0.24
2,L72I,1.19 ± 0.24
3,F309N,-0.159 ± 0.08
4,L105W,0.397 ± 0.32
5,A225Y,0.922 ± 0.45
6,A225V,1.28 ± 0.52
7,A225T,1.65 ± 0.34
8,P222G,0.489 ± 0.095
9,R405G,1.48 ± 0.22
10,V114Y,1.59 ± 0.21
11,V114L,0.271 ± 0.093
12,K44N,1.08 ± 0.33
13,K44I,1.16 ± 0.26
14,G385H,1.56 ± 0.25
15,A410G,1.23 ± 0.24
16,A397C,1.04 ± 0.15
17,P373M,1.56 ± 0.17
18,P373H,1.49 ± 0.37
19,P373T,1.11 ± 0.17
20,K83T,0.156 ± 0.58
21,K83L,0.484 ± 0.22

row,Variant,STK11 functional score
1,D258W,1.5 ± 0.51
2,T244S,0.613 ± 0.1
3,T244F,0.698 ± 0.082
4,T244N,0.0991 ± 0.1
5,R333K,1.61 ± 0.39
6,R333A,1.28 ± 0.17
7,P149N,1.38 ± 0.22
8,P319V,0.772 ± 0.46
9,K311L,1.04 ± 0.14
10,E57I,1.15 ± 0.09
11,E57S,1.17 ± 0.35
12,I177R,-0.0129 ± 0.087
13,Q37M,1.17 ± 0.1
14,Q37N,0.934 ± 0.53
15,E407A,1.52 ± 0.23
16,K175V,0.466 ± 0.1
17,C158H,1.53 ± 0.32
18,V110I,0.703 ± 0.64
19,Y49P,0.101 ± 0.089
20,G188S,1.05 ± 0.37
21,F366I,1.08 ± 0.28

row,Variant,STK11 functional score
1,A153F,0.0706 ± 0.09
2,E291G,0.922 ± 0.22
3,D68P,1.08 ± 0.12
4,D68W,0.944 ± 0.17
5,H154R,0.997 ± 0.16
6,H154A,1.49 ± 0.24
7,S232A,1.04 ± 0.22
8,A420L,1.61 ± 0.16
9,D327W,1.57 ± 0.12
10,D327T,1.6 ± 0.19
11,P144H,0.422 ± 0.16
12,D207H,1.37 ± 0.57
13,D30V,0.22 ± 0.12
14,R409K,1.39 ± 0.36
15,V243T,1.29 ± 0.26
16,S193K,0.0789 ± 0.12
17,L167R,-0.0722 ± 0.082
18,I322H,0.839 ± 0.66
19,H345M,1.54 ± 0.17
20,W332V,1.59 ± 0.27
21,W332M,1.42 ± 0.27
